Assays:
Experiment in all cases: thioflavin T fluorescence
[1] = biological target: [F11A,I12A]MSP2_(1–25) (Plasmodium falciparum)
[2] = biological target: MSP2_(1–25), recombinant 25-residue peptide corresponding to the entire conserved N-terminal domain of mature MSP2 (Plasmodium falciparum)
[3] = biological target: [Y7A,Y16A]MSP2_(1–25) (Plasmodium falciparum)

## [F11A,I12A]MSP2_(1–25) (peptide)
[1]
  lag time of fibril formation: 3.5 h
  time to maximum ThT fluorescence (fibril formation): 9 h

## MSP2_(1–25), recombinant 25-residue peptide corresponding to the entire conserved N-terminal domain of mature MSP2
[2]
  lag time of fibril formation: 1 h
  time to maximum ThT fluorescence (fibril formation): 2 h

## [Y7A,Y16A]MSP2_(1–25) (peptide)
[3]
  lag time of fibril formation: 1 h
  time to maximum ThT fluorescence (fibril formation): 2 h

Source: paper PMC2948610
